According to patent US20050032180A1, “Method for the production of (r)-and (s)-8-chloro-6-hydroxy-octanic acid alkyl esters by enzymatic reduction” (priority 2001, published 2005):
One block for each molecule: values may come before it.

Experiment: analytical assay of enzyme activity with compounds of the formula I as substrate
Assay type: biochemical
Method: The configuration of the resulting 8-chloro-6-hydroxyoctanoic acid alkyl esters is determined by the enzyme employed. Thus, reduction of 8-chloro-6-oxooctanoic acid alkyl esters using alcohol dehydrogenase from Thermoanaeorubium brokii results in enantiopure (R)-8-chloro-6-hydroxyoctanoic acid alkyl esters. In the case of reduction using Lactobacillus brevis alcohol dehydrogenase, there is enantioselective formation of (S)-8-chloro-6-hydroxyoctanoic acid alkyl esters (ee>65%).

Activity (Standard acetophenone, cofactor NADP(H), 50 mM Kpi, 0.1 mM MgCl2, pH 7.0, iso-propanol 200 mM): 10%
B1: LKADH: Lactobacillus kefir ADH, commercially available (protein, UniProt Q6WVP7 1-252, looked up)
NADP-dependent (R)-specific …: MTDRLKGKVAIVTGGTLGIGLAIADKFVEEGAKVVITGRHADVGEKAAKSIGGTDVIRFVQHDASDEAGWTKLFDTTEEAFGPVTTVVNNAGIAVSKSVEDTTTEEWRKLLSVNLDGVFFGTRLGIQRMKNKGLGASIINMSSIEGFVGDPTLGAYNASKGAVRIMSKSAALDCALKDYDVRVNTVHPGYIKTPLVDDLEGAEEMMSQRTKTPMGHIGEPNDIAWICVYLASDESKFATGAEFVVDGGYTAQ

Activity (Standard 2-butanone, cofactor NADP(H), 50 mM Tris, 1 mM DTT, pH 7.8, HCO2Na, FDH, 37° C.): 6%
B2: TBADH: Thermoanaerobium brokii ADH, commercially available (protein, UniProt P14941 1-352, looked up)
NADP-dependent isopropanol …: MKGFAMLSIGKVGWIEKEKPAPGPFDAIVRPLAVAPCTSDIHTVFEGAIGERHNMILGHEAVGEVVEVGSEVKDFKPGDRVVVPAITPDWRTSEVQRGYHQHSGGMLAGWKFSNVKDGVFGEFFHVNDADMNLAHLPKEIPLEAAVMIPDMMTTGFHGAELADIELGATVAVLGIGPVGLMAVAGAKLRGAGRIIAVGSRPVCVDAAKYYGATDIVNYKDGPIESQIMNLTEGKGVDAAIIAGGNADIMATAVKIVKPGGTIANVNYFGEGEVLPVPRLEWGCGMAHKTIKGGLCPGGRLRMERLIDLVFYKRVDPSKLVTHVFRGFDNIEKAFMLMKDKPKDLIKPVVILA

Activity (Standard 2-butanone, cofactor NAD(H), 100 mM TEA, pH 7.0): 20%
B3: Y-ADH: yeast alcohol dehydrogenase, commercially available (protein, UniProt P00330 2-348, looked up)
Alcohol dehydrogenase 1: SIPETQKGVIFYESHGKLEYKDIPVPKPKANELLINVKYSGVCHTDLHAWHGDWPLPVKLPLVGGHEGAGVVVGMGENVKGWKIGDYAGIKWLNGSCMACEYCELGNESNCPHADLSGYTHDGSFQQYATADAVQAAHIPQGTDLAQVAPILCAGITVYKALKSANLMAGHWVAISGAAGGLGSLAVQYAKAMGYRVLGIDGGEGKEELFRSIGGEVFIDFTKEKDIVGAVLKATDGGAHGVINVSVSEAAIEASTRYVRANGTTVLVGMPAGAKCCSDVFNQVVKSISIVGSYVGNRADTREALDFFARGLVKSPIKVVGLSTLPEIYEKMEKGQIVGRYVVDTSK
